{
  "source": "the supplement of paper PMC12042874",
  "note": "± gives the uncertainty stated by the source.",
  "data": [
    {"assay": "amyloid nucleation score (Sup35N fusion, yeast selection) (log enrichment); library NNK1; higher = more nucleation; inactive = no reads after selection", "outline": "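Psi-negative yeast expressed Sup35N fused to peptides of 20 random codons. They were induced 24 hours with 100 μM copper sulfate, grown 7 days at 30°C without adenine and uracil, and their plasmid inserts from input and output were Illumina-sequenced. The nucleation score is the DiMSum log enrichment of output over input reads, centred on the mode score of non-aggregating sequences. Sequences with under 100 input reads were excluded.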", "values": [
      {"substance": "SHIMRRFLWVELAQ", "amyloid nucleation score": "-1.18 ± 1.1"},
      {"substance": "RTNSWAESHRSHCVCATSCG", "amyloid nucleation score": "-0.743 ± 0.6"},
      {"substance": "AESWHVGKS", "amyloid nucleation score": "-0.593 ± 0.59"},
      {"substance": "AWCSSDGCFCPKRYMLLRSL", "amyloid nucleation score": "0.159 ± 0.84"},
      {"substance": "WVYMANRVEYRRASRNMS", "amyloid nucleation score": "inactive"},
      {"substance": "CNLYFSYNCVFT", "amyloid nucleation score": "-0.592 ± 0.24"},
      {"substance": "GNYSG", "amyloid nucleation score": "inactive"},
      {"substance": "LRRLSIANLFIFAFSWRFYW", "amyloid nucleation score": "1.03 ± 0.52"},
      {"substance": "SRVRHFVSFFTV", "amyloid nucleation score": "-0.333 ± 0.58"},
      {"substance": "YILGVRSSYSMFMESQCL", "amyloid nucleation score": "0.543 ± 0.23"},
      {"substance": "LNHRGGLVDGFMAAGPRKFR", "amyloid nucleation score": "-0.793 ± 1"},
      {"substance": "LTYSPWGCWIYMCYGERFWR", "amyloid nucleation score": "7.883 ± 0.062"},
      {"substance": "HSFMYKENAGMSGTLR", "amyloid nucleation score": "0.187 ± 0.48"},
      {"substance": "YNVMYTFLHFAIGTAISRTW", "amyloid nucleation score": "-0.798 ± 0.76"},
      {"substance": "TRWCVRERVSFKRAGQCDRV", "amyloid nucleation score": "inactive"},
      {"substance": "RGCRSCAFLIPGLVLCWWKE", "amyloid nucleation score": "0.069 ± 0.62"},
      {"substance": "DMFCQAI", "amyloid nucleation score": "0.773 ± 0.39"},
      {"substance": "LLLRSAAESRVSLDEEARGT", "amyloid nucleation score": "0.191 ± 0.64"},
      {"substance": "VKVIKLRHSLGTFFCSAQLQ", "amyloid nucleation score": "inactive"},
      {"substance": "SLYYGGLQER", "amyloid nucleation score": "-0.02 ± 0.29"},
      {"substance": "NSVIWRMG", "amyloid nucleation score": "1.42 ± 0.3"},
      {"substance": "GWMNCHNSTWRVGQALSSSR", "amyloid nucleation score": "0.282 ± 0.48"},
      {"substance": "ESTAQSEV", "amyloid nucleation score": "-0.237 ± 0.42"},
      {"substance": "IMKLYPLRQSG", "amyloid nucleation score": "0.453 ± 1.2"},
      {"substance": "RSDWFHMCNNT", "amyloid nucleation score": "2.38 ± 0.089"},
      {"substance": "GRPFALRWLDLGLLTDDPKG", "amyloid nucleation score": "-0.164 ± 0.32"},
      {"substance": "TFTLNFCGLQF", "amyloid nucleation score": "7.124 ± 0.059"},
      {"substance": "LCALVRICFPMADYEGRGGC", "amyloid nucleation score": "2.33 ± 0.14"},
      {"substance": "FCDPVYMPSERFWNAYMCTL", "amyloid nucleation score": "1.19 ± 0.9"},
      {"substance": "RGLQNCASSTVRESGR", "amyloid nucleation score": "0.009 ± 1"},
      {"substance": "SIMPWNLSVRSMWRFWMNLR", "amyloid nucleation score": "inactive"},
      {"substance": "LDVFPNYASRCTWAVDASFL", "amyloid nucleation score": "-0.703 ± 2.1"},
      {"substance": "YLSMFVWTGGNM", "amyloid nucleation score": "2.08 ± 0.31"},
      {"substance": "LKYANLSMRYPWVKKYCKEN", "amyloid nucleation score": "-0.301 ± 0.51"},
      {"substance": "SMGVMSCNMSWSSAWCVMCV", "amyloid nucleation score": "0.289 ± 0.42"},
      {"substance": "KMKLRHTSCRFSREVTDVY", "amyloid nucleation score": "0.614 ± 0.32"},
      {"substance": "SERVMEWGTLKLYDSVHCVL", "amyloid nucleation score": "-1.55 ± 2.7"},
      {"substance": "LFYVMWWMAGVGLRRGYWAN", "amyloid nucleation score": "inactive"},
      {"substance": "SCKCLTSTGGGSGDRKGWNG", "amyloid nucleation score": "0.916 ± 0.55"},
      {"substance": "QQSFVTSLVMYVDRYRFVQV", "amyloid nucleation score": "0.809 ± 0.85"},
      {"substance": "GLETNNLARLVCGSRCFLSD", "amyloid nucleation score": "-0.894 ± 2.4"},
      {"substance": "YTSKSMRGFSKKSLFDMTFK", "amyloid nucleation score": "0.126 ± 0.79"},
      {"substance": "HQVVRSFGELHLLWCRLDEG", "amyloid nucleation score": "0.204 ± 0.45"},
      {"substance": "NWGVIVMFTYYRSSSGNLAC", "amyloid nucleation score": "1.35 ± 0.45"},
      {"substance": "RLSLAESAPLVNFVSTALGK", "amyloid nucleation score": "-0.168 ± 0.93"},
      {"substance": "YSLLTVASREVSKQSGTSRI", "amyloid nucleation score": "0.42 ± 1.2"},
      {"substance": "TLCQNSGKFCMYTWLSVYVD", "amyloid nucleation score": "0.423 ± 0.26"},
      {"substance": "PLVGGRNCGKDFPSLTDTPV", "amyloid nucleation score": "-0.06 ± 0.27"},
      {"substance": "SYPFWYSHMIHCYRFAIFGL", "amyloid nucleation score": "-2.73 ± 2.4"},
      {"substance": "EVGMHNMACADSSVCMRSVL", "amyloid nucleation score": "0.472 ± 0.6"},
      {"substance": "RGRPLLGRMRFSSAGRAAFW", "amyloid nucleation score": "-0.418 ± 1.5"},
      {"substance": "HFNYNNTSMFSLTHSWHGIM", "amyloid nucleation score": "4.71 ± 0.089"},
      {"substance": "FYVLATFSNC", "amyloid nucleation score": "0.618 ± 0.4"},
      {"substance": "GTNFS", "amyloid nucleation score": "0.498 ± 0.97"},
      {"substance": "SMVLFGRISWIGEVLLL", "amyloid nucleation score": "4.99 ± 0.089"},
      {"substance": "IMFYMTVDGCLSVEYIFR", "amyloid nucleation score": "-0.704 ± 0.42"},
      {"substance": "KCNVTQFVRSLYIRMSMLLH", "amyloid nucleation score": "0.534 ± 0.39"},
      {"substance": "IGTLFTSNSYFWYLVVG", "amyloid nucleation score": "2.51 ± 0.13"},
      {"substance": "VFLMLEVCLMV", "amyloid nucleation score": "0.362 ± 0.72"},
      {"substance": "CHLTMIMNLVIMMAWNPLHC", "amyloid nucleation score": "0.765 ± 0.47"},
      {"substance": "PNIFCLQRSPNRP", "amyloid nucleation score": "-0.331 ± 0.31"},
      {"substance": "ARFMLAWEVNCQG", "amyloid nucleation score": "1.39 ± 0.22"},
      {"substance": "FVSPVTSSQNSPVIVVRSLL", "amyloid nucleation score": "-0.561 ± 0.48"},
      {"substance": "HSALIQSIEGVINVGCGVKK", "amyloid nucleation score": "1.25 ± 0.23"},
      {"substance": "INGPCLLTYLPLAEVGCCLV", "amyloid nucleation score": "0.25 ± 0.55"},
      {"substance": "TIYTSSGVVMALVHRLHLVA", "amyloid nucleation score": "-1.1 ± 0.68"},
      {"substance": "VVRAFLTLILAVIDEENGSE", "amyloid nucleation score": "-1.42 ± 2.7"},
      {"substance": "YKATRRRQLLSPVIGEDQIG", "amyloid nucleation score": "0.208 ± 0.32"},
      {"substance": "VWFFQNNVNFSDKQ", "amyloid nucleation score": "8.011 ± 0.045"},
      {"substance": "DSEDSNLSCLLYTQC", "amyloid nucleation score": "0.153 ± 0.16"},
      {"substance": "LNVCSRTPWYKSQSFVDRCV", "amyloid nucleation score": "-1.69 ± 2.4"},
      {"substance": "GSGKCVPGDTELAILGLKR", "amyloid nucleation score": "0.299 ± 0.7"},
      {"substance": "TTCSVVRDFYSLIFCTKCPY", "amyloid nucleation score": "4.03 ± 0.063"},
      {"substance": "GIGFNHVSHLVKENS", "amyloid nucleation score": "-0.192 ± 0.97"},
      {"substance": "FAHHLYINRMSRFIDARVTI", "amyloid nucleation score": "2.37 ± 0.13"},
      {"substance": "SGFIGS", "amyloid nucleation score": "-1.33 ± 1.3"},
      {"substance": "GSVCRCSDAPVSFRVGNSVG", "amyloid nucleation score": "-0.078 ± 0.27"},
      {"substance": "FSTLICIGVE", "amyloid nucleation score": "-0.35 ± 0.65"},
      {"substance": "YRESSATGMMSGSDLKRWQV", "amyloid nucleation score": "-2 ± 2.4"},
      {"substance": "SRHFFTAKCQRPRFLWKSDR", "amyloid nucleation score": "-0.172 ± 1.2"},
      {"substance": "VMESTRNFSKVMSCSLFRFR", "amyloid nucleation score": "-0.684 ± 0.62"},
      {"substance": "FIVKKFIKSNRLVLMRGSPL", "amyloid nucleation score": "0.669 ± 0.49"},
      {"substance": "LSCLYDDCC", "amyloid nucleation score": "1.05 ± 0.61"},
      {"substance": "NSIHFCGGGRLHSAKLDVSS", "amyloid nucleation score": "inactive"},
      {"substance": "SCNSIGTCTLFKLHSLLS", "amyloid nucleation score": "0.701 ± 0.51"},
      {"substance": "FVYLR", "amyloid nucleation score": "0.98 ± 0.55"}
    ]}
  ]
}
